Experimental data taken from article PMC6318265, “Structure of BAI1/ELMO2 complex reveals an action mechanism of adhesion GPCRs via ELMO family scaffolds” (Nature Communications, 2019).

Experiments:
[1] = molecular target: T1, ELMO2-RAE (sample of the ITC titration) (human, UniProt Q96JJ3 1-520); assay: ITC; MicroCal iTC200, 25 °C; 50 mM Tris pH 8.0, 100 mM NaCl, 1 mM EDTA, 1 mM DTT; BAI1-EBD (~500 µM) in the syringe, ELMO2-RAE (~40 µM) in the cell; conditions: both partners purified
T1 construct: ELMO2, GenBank AF398886.1, aa 1-520 (RBD-ARR-ELMO tandem); Tag removal is described only for crystallography; also called Trx-His6-ELMO2-RAE; source: E. coli BL21 (DE3), purified (Ni-NTA, SEC)
T1 sequence (looked up): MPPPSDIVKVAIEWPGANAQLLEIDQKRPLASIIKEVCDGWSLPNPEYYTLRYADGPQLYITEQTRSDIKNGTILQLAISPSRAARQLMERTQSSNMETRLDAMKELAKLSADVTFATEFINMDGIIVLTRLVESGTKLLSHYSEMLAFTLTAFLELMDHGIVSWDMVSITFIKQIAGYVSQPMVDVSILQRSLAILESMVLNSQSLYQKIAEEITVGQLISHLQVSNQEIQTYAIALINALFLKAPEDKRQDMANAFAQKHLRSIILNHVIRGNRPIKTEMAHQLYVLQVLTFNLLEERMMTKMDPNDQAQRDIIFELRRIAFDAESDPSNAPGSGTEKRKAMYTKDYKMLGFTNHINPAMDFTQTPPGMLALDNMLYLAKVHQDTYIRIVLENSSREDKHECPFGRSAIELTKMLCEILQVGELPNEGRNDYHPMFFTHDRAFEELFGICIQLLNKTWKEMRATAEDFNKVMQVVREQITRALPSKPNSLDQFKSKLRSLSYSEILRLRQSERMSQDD

[2] = molecular target: T2, ELMO2-RAE (tag removed, for crystallography) (human, UniProt Q96JJ3 1-520); assay: crystal structure; ELMO2-RAE mixed with synthetic BAI1-EBD peptide at 1:2; 0.3 M ammonium fluoride, 18% PEG3,350, 16 °C; 1.7 Å, molecular replacement; conditions: both partners purified
T2 construct: ELMO2, GenBank AF398886.1, aa 1-520 (RBD aa 1-80, ARR aa 81-301, ELMO domain aa 306-513); also called RAE tandem of ELMO2; source: E. coli BL21 (DE3), purified (Ni-NTA, SEC, 3C protease cleavage, SEC)
T2 sequence (looked up): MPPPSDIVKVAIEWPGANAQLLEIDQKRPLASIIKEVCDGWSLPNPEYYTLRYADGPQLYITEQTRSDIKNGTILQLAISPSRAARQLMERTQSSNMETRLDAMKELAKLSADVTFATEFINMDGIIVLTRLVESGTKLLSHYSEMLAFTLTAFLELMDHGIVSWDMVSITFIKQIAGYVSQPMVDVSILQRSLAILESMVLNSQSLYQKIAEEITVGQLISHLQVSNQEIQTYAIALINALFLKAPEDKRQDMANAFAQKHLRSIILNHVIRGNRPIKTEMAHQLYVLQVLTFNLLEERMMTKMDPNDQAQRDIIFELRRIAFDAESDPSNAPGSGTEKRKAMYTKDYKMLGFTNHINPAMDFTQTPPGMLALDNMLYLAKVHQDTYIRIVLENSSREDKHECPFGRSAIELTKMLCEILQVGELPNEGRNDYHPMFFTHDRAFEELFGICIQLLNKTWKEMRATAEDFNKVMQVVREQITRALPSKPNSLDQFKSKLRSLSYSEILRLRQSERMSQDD

Row | Binder | Kd [1] | stoichiometry N [1] | stoichiometry N [2]
1 | SLERRKSRYAELDFEKIMHTRKRHQDMFQDLNRKLQ (domain or fragment, mouse, UniProt Q3UHD1-1 1467-1502, looked up, the methods speak of 'BAI1 proteins') [BAI1-EBD (sample of the ITC titration)] | ~3.36 µM | 1 | 
2 | SLERRKSRYAELDFEKIMHTRKRHQDMFQDLNRKLQ (peptide, UniProt Q3UHD1-1 1467-1502, looked up, aa 1471-1495 are defined in the electron density; source: synthetic peptide (ChinaPeptide Co.,Ltd.)) [synthetic BAI1-EBD peptide] |  |  | 1
